Assay results taken from patent US20020146411A1, “Anticoagulant agents useful in treatment of thrombosis” (SmithKline Beecham Corporation, priority 1996, published 2002).
Entries after “also recorded” stand apart in the source; their conditions may differ.

Tests used:
rhFIX = molecular target: T1, rhFIX (Homo sapiens, UniProt P00740, T194A); assay: Titration microcalorimetry of rhFIX binding
T1 construct: purchased Genetics Institute
Protocol: The interactions between rhFIX and SB 249417 BC2 and other humanized constructs were characterized by titration microcalorimetry, which measures binding interactions in solution from the intrinsic heat of binding. Nine injections of 106 uM FIX were made into the calorimeter containing 2 uM mAb SB 249417. Binding was detected in the first 4 injections as exothermic heats. At the last 5 injections the mAb binding sites were saturated with FIX and only background heats of mixing were observed. […] Nonlinear least squares analysis of the data yield the binding affinity.
The data in Table 3 indicate that the affinities of SB 249417, BC2 and its other humanized constructs are within error (a factor of 2) the same.

[1] = tested on: rat carotid artery thrombosis; assay: Rat carotid artery thrombosis model, humanized mAbs, Example 8; assay type: in vivo; conditions: 3.0 mg/kg i.v. bolus, 60 minutes after onset of injury
Protocol: In order to evaluate the efficacy of humanized anti-Factor IX antibodies in prevention of arterial thrombosis, the rat carotid artery thrombosis model as described above in Example 3 was used. Baseline parameters were established for carotid blood flow, arterial pressure, heart rate, vessel patency and activated partial thromboplastin time (aPTT). Fifteen minutes thereafter, carotid injury was effected for […]. The parameters were determined 60 minutes after onset of carotid injury. Carotid thrombus was also extracted from the carotid artery and weighed.
All agents were administered intravenously 15 minutes before the onset of carotid injury. The following treatments were examined and compared to the anti-Factor IX mAb BC2.

Factor IXa = molecular target: T2, Factor IXa (Homo sapiens, UniProt P00740); assay: Binding to Factor IXa (Table I)
T2 construct: as well as the active protease, Factor IXa
T2 sequence (P00740 47-191 limits assumed): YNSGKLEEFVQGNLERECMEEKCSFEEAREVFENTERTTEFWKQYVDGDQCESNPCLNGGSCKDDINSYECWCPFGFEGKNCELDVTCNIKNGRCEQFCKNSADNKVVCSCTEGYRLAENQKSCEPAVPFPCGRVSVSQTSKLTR
T2 sequence (P00740 227-461 limits assumed): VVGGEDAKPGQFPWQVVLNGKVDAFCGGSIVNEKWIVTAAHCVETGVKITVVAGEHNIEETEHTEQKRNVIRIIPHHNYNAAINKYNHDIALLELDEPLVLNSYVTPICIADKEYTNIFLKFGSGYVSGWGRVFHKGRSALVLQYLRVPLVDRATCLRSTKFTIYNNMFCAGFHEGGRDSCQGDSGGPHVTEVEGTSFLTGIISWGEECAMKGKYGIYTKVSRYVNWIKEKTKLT

[2] = molecular target: Factor IX to IXa conversion (Homo sapiens, UniProt P00740); assay: Inhibition of Factor IX to IXa conversion (Table I); assay type: biochemical
Sequence of Factor IX to IXa conversion (P00740 29-461 limits assumed): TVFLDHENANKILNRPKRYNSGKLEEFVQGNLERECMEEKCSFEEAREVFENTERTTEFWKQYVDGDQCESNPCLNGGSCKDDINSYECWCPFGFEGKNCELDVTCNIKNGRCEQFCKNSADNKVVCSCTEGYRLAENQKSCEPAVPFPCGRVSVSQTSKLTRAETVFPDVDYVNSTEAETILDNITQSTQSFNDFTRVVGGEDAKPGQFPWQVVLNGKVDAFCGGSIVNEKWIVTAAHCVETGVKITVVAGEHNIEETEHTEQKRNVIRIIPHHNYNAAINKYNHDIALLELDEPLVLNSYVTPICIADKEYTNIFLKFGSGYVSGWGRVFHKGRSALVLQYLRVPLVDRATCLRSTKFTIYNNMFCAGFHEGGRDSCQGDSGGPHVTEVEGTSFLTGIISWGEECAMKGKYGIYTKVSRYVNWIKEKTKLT

rat Factor IX = rat Factor IX (Rattus norvegicus, UniProt P16296); assay: Species cross-reactivity, rat Factor IX; assay type: binding
Sequence of rat Factor IX (P16296 40-462): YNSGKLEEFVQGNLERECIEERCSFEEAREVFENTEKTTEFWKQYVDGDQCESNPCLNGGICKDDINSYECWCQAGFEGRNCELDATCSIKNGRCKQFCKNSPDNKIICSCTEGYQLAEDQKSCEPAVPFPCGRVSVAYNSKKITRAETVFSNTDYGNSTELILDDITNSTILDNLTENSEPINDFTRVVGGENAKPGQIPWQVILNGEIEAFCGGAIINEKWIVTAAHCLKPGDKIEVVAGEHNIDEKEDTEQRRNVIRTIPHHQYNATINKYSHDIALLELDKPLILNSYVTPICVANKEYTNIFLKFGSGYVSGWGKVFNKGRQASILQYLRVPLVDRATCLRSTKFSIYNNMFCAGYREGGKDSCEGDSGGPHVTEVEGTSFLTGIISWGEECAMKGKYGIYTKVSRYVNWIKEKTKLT

Factor IX [3] = molecular target: T3, Factor IX (Homo sapiens, UniProt P00740); assay: Cofactor requirement for mAb activity (Table I)
Target sequence in this assay (P00740 29-461 limits assumed): as the sequence (P00740 29-461 limits assumed) above

[4] = molecular target: T4, Factor IXa in Xase complex (Homo sapiens, UniProt P00740); assay: Inhibition of IXa activity in Xase complex (Table I); assay type: biochemical
T4 construct: as well as the active protease, Factor IXa
T4 sequence (P00740 47-191 limits assumed): as the sequence (P00740 47-191 limits assumed) above
T4 sequence (P00740 227-461 limits assumed): as the sequence (P00740 227-461 limits assumed) above

Factor IX [5] = molecular target: T3, Factor IX; assay: Binding to Factor IX (in vitro properties, Table I); parameters: Human plasma samples were either freshly drawn and kept on ice or reconstituted; host or cells: human plasma
Protocol: Approximately two weeks later, 1.0 mL of hybridoma medium was removed from each well and tested for anti-Factor IX antibodies using an ELISA assay as described by Jenny, R. J. et al. in Meth. Enzymol. 222, 400-416 (1993). Briefly, factor IX was immmobilized onto plastic wells of 96-well microtiter plates. Hybridoma supernatants or dilutions of purified antibody were then incubated in the wells. The wells were washed and the presence of antibody-antigen complexes detected with a goat anti-murine immunoglobulin second antibody conjugated to horseradish peroxidase and the chromogenic substrate o-dianisidine.
Target sequence in this assay (P00740 47-461): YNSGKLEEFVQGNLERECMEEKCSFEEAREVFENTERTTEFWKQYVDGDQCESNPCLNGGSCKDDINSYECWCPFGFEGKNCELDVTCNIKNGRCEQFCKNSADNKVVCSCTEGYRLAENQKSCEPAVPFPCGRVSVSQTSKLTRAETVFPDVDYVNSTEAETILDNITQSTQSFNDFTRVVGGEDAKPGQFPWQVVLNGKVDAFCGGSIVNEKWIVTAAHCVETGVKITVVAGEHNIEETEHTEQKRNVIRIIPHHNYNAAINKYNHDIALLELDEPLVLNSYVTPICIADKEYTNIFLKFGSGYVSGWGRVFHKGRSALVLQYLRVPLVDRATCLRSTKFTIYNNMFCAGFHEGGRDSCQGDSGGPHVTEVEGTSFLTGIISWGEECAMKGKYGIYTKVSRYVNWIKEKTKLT

[6] = tested on: rat carotid artery thrombosis; assay: Rat carotid artery thrombosis model (FeCl3 injury), Example 3; assay type: in vivo
Excerpt: In order to evaluate the efficacy of anti-Factor IX antibodies in prevention of arterial thrombosis, the rat carotid artery thrombosis model as reported by Schumacher et al. in J. Cardio. Pharm. 22, 526-533 (1993) was adapted. This model consists of segmental injury to the carotid endothelium by oxygen radicals generated by FeCl3 solution applied on the surface of the carotid artery.
In brief, rats were anesthetized with pentobarbitone sodium, the jugular vein cannulated for intravenous injections and the left femoral artery cannulated for blood pressure and heart rate monitoring. The carotid artery was isolated by aseptic technique via a surgical incision in the neck and equipped with a magnetic flow probe for blood flow measurement. After a period of stabilization, baseline parameters were established for the following variables: carotid blood flow, arterial pressure, heart rate, activated partial thromboplastin time (aPTT) and prothrombin time (PT). Thereafter, a premeasured Whatman filter paper soaked in 50% FeCl3 solution was placed on the carotid artery for 15 minutes for complete injury of the underlying endothelial cells. After removal of the FeCl3 soaked paper, the experiment was followed to completion over 60 minutes. At the end of the experiment, the carotid thrombus was extracted from the carotid artery and weighed.
All agents were administered 15 minutes prior to the onset of carotid injury. The following treatments were examined and compared to the Factor IX mAb BC2.
1. Heparin: 15, 30, 60 or 120 U/kg bolus, followed by infusion of 0.5, 1, 2 or 4 U/kg/min, respectively over 60 minutes
2. Acetylsalicylic acid (ASA, aspirin): 5 mg/kg bolus
3. Anti-Factor IX mAb BC2: 1, 3 or 6 mg/kg bolus, followed by infusion 0.3, 1, or 2 ug/kg/min, respectively over 60 minutes
4. Heparin: 30U/kg bolus+lU/kg/min+ASA at 5 mg/kg
5. Anti-Factor IX mAb BC2: 1 mg/kg+0.3 ug/kg/min+ASA at 5 mg/kg

Factor IX [7] = molecular target: T3, Factor IX; assay: aPTT clotting time of human plasma, anti-Factor IX mAbs; assay type: biochemical; parameters: Human plasma samples were either freshly drawn and kept on ice or reconstituted; host or cells: human plasma
Protocol: The effect of increasing concentrations of anti-coagulation factor antibodies on activated partial thromboplastin time (aPTT) of human plasma was determined in a fibrometer (Becton-Dickinson Microbiology Systems, Cockeysville, Md.) using Baxter reference procedure LIB0293-J, 3/93 revision (Baxter Scientific, Edison, N.J.).
Prior to the start of the experiment, 2 to 3 mL of 0.02 M CaCl2 in a 5 mL tube were placed into the heating chamber of the fibrometer. Human plasma samples were either freshly drawn and kept on ice or reconstituted per the manufacturer's recommendation from Hemostasis Reference Plasma (American Diagnostics, Greenwich, Conn.).
Unfractionated heparin from porcine intestinal mucosa (Sigma Chemical, St. Louis, Mo.), low molecular weight heparin from porcine intestinal mucosa (Lovenox®, enoxaparin sodium, Rhone-Poulenc Rorer Pharmaceuticals, Collegeville, Pa.) or mAb anticoagulants were prepared as approximately 50 uM stock solutions and serially diluted directly into the test plasma. A blank containing plasma without anticoagulant was included as a reference.
Two fibroTube® fibrometer cups were filled with 100 ul test plasma or 100 ul test plasma with anticoagulant and 125 ul of actin activated cephaloplastin reagent (Actin reagent, from rabbit brain cephalin in ellagic acid, available from Baxter Scientific), respectively and placed in the fibrometer wells at 37° C.
After one minute, 100 ul of actin reagent was transferred to a plasma-containing cup and the contents mixed several times with a pipette. After a 3 minute incubation, 100 ul of CaCl2, prewarmed at 37° C., was added to the plasma-actin reagent mixture using a Automatic Pipette/Timer-trigger (Becton-Dickinson). The clotting times were noted and the results in FIG. 1 are presented as clotting times as a function of final concentrations of anticoagulant in the total assay volume of 300 ul. The nominal concentration of Factor IX in the assay is 30-40 nM.
Target sequence in this assay (P00740 47-461): as above

[8] = molecular target: T5, Recombinant human Factor IX (rhFIX) (Homo sapiens, UniProt P00740, T194A); assay: BIAcore kinetics of Factor IX binding to mAb on protein A surface; conditions: rhFIX 49 nM, 5 mM Ca2+, biosensor
T5 construct: purchased Genetics Institute
T5 sequence (P00740 47-461 T194A): as the sequence (P00740 47-461) above, with T148A counted along it
Protocol: The kinetics of Factor IX binding to SB 249417 was assessed by BIAcore analysis with antibody bound to an immobilized protein A surface. Recombinant human Factor IX (rhFIX, Genetics Institute) at 49 nM was used and measurements performed in the presence of 5 mM Ca^2+. The interaction was characterized by rapid association, kass 2.0×10^5 M^−1 s^−1 and relatively slow off-rate, kdiss=4.1×10^−4 s^−1.

Factor IX gla domain = assay: Epitope mapping of BC2 with Factor IX/Factor VII chimeric constructs; assay type: binding
Protocol: A library of chimeric constructs composed of sequences of Factor IX spliced into the framework of the homologous protein Factor VII was constructed and used to map the epitope for the Factor IX BC2 mAb. See Cheung et al., Thromb. Res. 80, 419-427 (1995). Binding was measured using a BiaCore 2000 surface plasmon resonance device. The BC2 antibody was coupled directly to the chip using the NHS/EDC reaction. Binding was measured by 2 min of contact time at 20 uL/min with 200 nM of each of the given constructs in 25 mM MOPS, pH 7.4, 0.15 M NaCl, 5 mM CaCl2. Dissociation was monitored for 3 min using the same buffer with no protein. No binding was detected to the wild type construct in the presence of 50 mM EDTA.

[9] = tested on: Cynomologous monkey Factor IX; assay: Species cross-reactivity, monkey Factor IX; assay type: binding

T1 sequence (P00740 47-461 T194A): as the sequence (P00740 47-461) above, with T148A counted along it

B1: SB 249417: humanized anti-Factor IX mAb, heavy chain F9HZHC 1-1 (SEQ ID NO: 52), light chain F9HZLC 2-0 (SEQ ID NO: 74) (antibody, V domains shown)
VH: QVQLVQSGSELKKPGASVKVSCKASGYTFTNYGMNWVRQAPGQGLKWMGWINTRNGKSTYVDDFKGRFVFSLDSSVSTAYLQISSLKADDTAVYYCTREGNMDGYFPFTYWGQGTLVTVSS
VL: QIVLTQSPSSLSASVGDRVTITCRASSSVNYMHWYQQKPGKAPKPWIYATSNLASGVPSRFSGSGSGTDYTFTISSLQPEDIATYYCQQWSINPRTFGQGTKVEIKR
rhFIX
  Stoichiometry of Factor IX Binding, Isothermal Titration Calorimetry: 1.5 moles Factor IX: 1 mole mAb
[1]
  effect on aPTT (FIG. 8): modest effect

B2: BC2: murine monoclonal antibody directed against human Factor IX and/or Factor IXa, isotype IgG2a (antibody, V domains shown)
VH: QIQLVQSGPELKKPGETVKISCKASGYTFTNYGMNWVKQAPGKGLKWMGWINTRNGKSTYVDDFKGRFAFSLESSASTANLQIDNLKDEDTATYFCTREGNMDGYFPFTYWGQGTLVTVSA
VL: QIVLSQSPAILSASPGEKVTMTCRASSSVNYMHWYQQKPGSSPKPWIYATSNLASGVPARFSGSGSGTSYSLTISRVEAEDAATYYCQQWSINPRTFGGGTKLEIKR
Factor IXa
  Binds Factor IXa: binds Factor IXa and yes
[2]
  Inhibits IX to IXa conversion: yes
Rat Factor IX
  Species cross-reactivity: rat Factor IX: cross-reacted; also recorded: species cross-reactivity with rat
Factor IX [3]
  Cofactor requirement: Divalent metal cofactors are required for activity; also recorded: Ca^2+ > Mn^2+
[4]
  Inhibits IXa activity in Xase complex: inhibits Factor IXa activity and yes
Factor IX [5]
  Binds Factor IX: yes
[6]
  effect on prothrombin time (PT) at 60 minutes (FIG. 5): not by any of the Factor IX mAb doses
  effect on thrombus weight (FIG. 7): dose-dependently reduced
[6]; Factor IX mAb at the two higher doses (3, 6 mg/kg bolus + infusion)
  effect on carotid artery occlusion: completely blocked
[6]; high dose of Factor IX mAb
  effect on thrombus formation: virtually prevented completely
[6]; highest dose of Factor IX mAb (6 mg/kg bolus + 2 ug/kg/min)
  increase in clotting time (aPTT): ≤ 3 fold
[6]; lower dose of Factor IX mAb alone (1 mg/kg + 0.3 ug/kg/min)
  effect on carotid artery occlusion (patency): largely failed to secure patency
[6]; regimens of b146-b150, given 15 minutes before injury
  effect on aPTT at 60 minutes (FIG. 4): modest effect
Factor IX [7]; Table I, the values are: max aPTT as % of normal aPTT
  [formula] (row head is a formula not shown): 350%
Factor IX [7]; normal human plasma, FIG. 1
  aPTT at saturating concentrations of mAb: about 90 sec
  increase of the aPTT at saturating concentrations: 3.5 fold
Factor IX [7]; self-limiting effect, summary description
  maximal value of clot time in the aPTT assay: about 100 seconds
[8]
  kass: 480000 M⁻¹ s⁻¹
  kdiss: 0.00091 s⁻¹
Factor IX gla domain
  epitope: residues 3-11 of the Factor IX gla domain
[9]
  Species cross-reactivity: monkey Factor IX: cross-react
